Columns and labels:
[1] = molecular target: HLA-G recombinant protein (CAT #: TP305216, Origene) (human) (UniProt P17693); test: competitive ELISA, HLA-G coated, competitor biotinylated LILRB1
[2] = molecular target: HLA-G recombinant protein (CAT #: TP305216, Origene) (human) (UniProt P17693); test: competitive ELISA, HLA-G coated, competitor biotinylated KIR2DL4
[3] = molecular target: T1, HLA-G recombinant protein (CAT #: TP305216, Origene) (human, UniProt P17693 25-338, limits assumed); test: competitive ELISA, HLA-G coated, competitor biotinylated LILRB1; blocking normalized to 87G
T1 construct: Bought recombinant protein coated on the plate; also called human leukocyte antigen-G
Procedure: (§1) The procedure is as follows. HLA-G recombinant protein (CAT #: TP305216, Origene) (0.2 mg/ml, 100 μl each well) was coated on 96-well plate overnight at 4° C. Next day, the coating buffer was discarded, and blocked with 3% skin milk for 2 hr at room temperature, followed by washing 5 times with PBST (0.05% Tween in PBS). […] After 9 times of washing, each well was incubated with 100 μl PBST containing streptavidin-HRP conjugates (ThermoFisher, Cat No: N100, dilution titer: […]) for 2 hr at room temperature. After 9 times of washing with PBST, 50 μl of TMB substrate for detecting HRP activity (ThermoFisher, Cat No:N301) was added. The reactions were stopped by adding 50 μl stop solution (ThermoFisher, Cat No:N600), and it was measured by ELISA reader using 450 nm channel.

[4] = molecular target: T1, HLA-G recombinant protein (CAT #: …); test: competitive ELISA, HLA-G coated, competitor biotinylated KIR2DL4; blocking normalized to 87G
Procedure: as §1

IC50 [1] [µg/mL] | IC50 [2] [µg/mL] | IC50 [3] [µg/mL] | IC50 [4] [µg/mL] | Molecule
0.101 | 0.0414 |  |  | commercial anti-HLA-G monoclonal antibody (87G)
 |  | 0.000174 | 0.814 | anti-HLA-G nanobody clone #20 (VHH, also called anti-tumor antigen nanobody; anti-HLA-G nanobody (NB)) VHH: EVQLVESGGGSVRPGETLRLSCTASGFTVDDSDMSWYRQAPGDECELVSSITSGGGKYYSHPVKGRFTIFRDKGKNTMYLQMNSLVPEDTGVYYCVAPAWTGYGCTWGQGTQVTVSS
 |  | 0.000825 | 0.00614 | anti-HLA-G nanobody clone #9 (VHH, also called anti-tumor antigen nanobody; anti-HLA-G nanobody (NB)) VHH: QVQLVESGGGSVQAGGSLRLSCEASGRTYSSNCMGWFRQAPGKERENVAAIYTGGDGITYADSVKGRFTISQDKLKNMLYLQMDSLKPEDTAMYYCAADPNRRRMGVGGSCLRANFGPGGQGTQVTVSS

Reference: US20220306747A1 (CHINA MEDICAL UNIVERSITY HOSPITAL, published 2022)
